According to publication PMC11883961:

Target: T1, MAPRE1 (native MS), Q15691
T1 chain: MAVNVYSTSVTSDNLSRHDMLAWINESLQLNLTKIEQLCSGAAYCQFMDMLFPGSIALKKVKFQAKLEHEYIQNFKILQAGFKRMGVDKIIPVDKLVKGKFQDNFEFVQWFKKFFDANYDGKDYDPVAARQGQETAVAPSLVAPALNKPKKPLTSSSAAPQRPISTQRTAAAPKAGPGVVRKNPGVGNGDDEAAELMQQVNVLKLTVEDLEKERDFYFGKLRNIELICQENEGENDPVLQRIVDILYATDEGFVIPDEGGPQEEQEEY
Experiment: native MS
Settings: remark: other sources report otherwise

- stoichiometry N: 2
B1: MAPRE1 (native MS), Q15691 1-268 (natural protein)
chain: MAVNVYSTSVTSDNLSRHDMLAWINESLQLNLTKIEQLCSGAAYCQFMDMLFPGSIALKKVKFQAKLEHEYIQNFKILQAGFKRMGVDKIIPVDKLVKGKFQDNFEFVQWFKKFFDANYDGKDYDPVAARQGQETAVAPSLVAPALNKPKKPLTSSSAAPQRPISTQRTAAAPKAGPGVVRKNPGVGNGDDEAAELMQQVNVLKLTVEDLEKERDFYFGKLRNIELICQENEGENDPVLQRIVDILYATDEGFVIPDEGGPQEEQEEY
